Key:
[1] = molecular target: L1-CAM on L1-CAM(+) human tumor cells (human) (UniProt P32004); assay: flow cytometry, MSTO mesothelioma cells (control)
[2] = molecular target: L1-CAM on L1-CAM(+) human tumor cells (human) (UniProt P32004); assay: flow cytometry, MESO 34 mesothelioma cells (control)
[3] = molecular target: L1-CAM on L1-CAM(+) human tumor cells (human) (UniProt P32004); assay: flow cytometry, JMN mesothelioma cells (control)
[4] = molecular target: L1-CAM on L1-CAM(+) human tumor cells (human) (UniProt P32004); assay: flow cytometry, MSTO-21H mesothelioma cells (control)
[5] = molecular target: L1-CAM on L1-CAM(+) human tumor cells (human) (UniProt P32004); assay: flow cytometry, MESO 10 mesothelioma cells (control)
[6] = molecular target: L1-CAM on L1-CAM(+) human tumor cells (human) (UniProt P32004); assay: flow cytometry, MESO 47 mesothelioma cells (control)
[7] = molecular target: L1-CAM on L1-CAM(+) human tumor cells (human) (UniProt P32004); assay: flow cytometry, MESO 9 mesothelioma cells (control)
[8] = molecular target: L1-CAM on L1-CAM(+) human tumor cells (human) (UniProt P32004); assay: flow cytometry, MESO 11 mesothelioma cells (control)
[9] = molecular target: L1-CAM on L1-CAM(+) human tumor cells (human) (UniProt P32004); assay: flow cytometry, VAMT mesothelioma cells (control)
[10] = molecular target: L1-CAM on L1-CAM(+) human tumor cells (human) (UniProt P32004); assay: flow cytometry, NCI-H2052 mesothelioma cells (control)
[11] = molecular target: L1-CAM on L1-CAM(+) human tumor cells (human) (UniProt P32004); assay: flow cytometry, RH30 rhabdomyosarcoma cells (control)
[12] = molecular target: L1-CAM on L1-CAM(+) human tumor cells (human) (UniProt P32004); assay: flow cytometry, HCC1954 breast CA cells (control)
[13] = molecular target: L1-CAM on L1-CAM(+) human tumor cells (human) (UniProt P32004); assay: flow cytometry, THP-1 AML cells (control)
[14] = molecular target: L1-CAM on L1-CAM(+) human tumor cells (human) (UniProt P32004); assay: flow cytometry, M14 melanoma cells (control)
[15] = molecular target: L1-CAM on L1-CAM(+) human tumor cells (human) (UniProt P32004); assay: flow cytometry, ACC 104 M-07e AML cells (control)
[16] = molecular target: L1-CAM on L1-CAM(+) human tumor cells (human) (UniProt P32004); assay: flow cytometry, MCF7 breast CA cells (control)
[17] = molecular target: L1-CAM on L1-CAM(+) human tumor cells (human) (UniProt P32004); assay: flow cytometry, HPB-T ALL cells (control)
[18] = molecular target: L1-CAM on L1-CAM(+) human tumor cells (human) (UniProt P32004); assay: flow cytometry, HTB67 melanoma cells (control)
[19] = molecular target: L1-CAM on L1-CAM(+) human tumor cells (human) (UniProt P32004); assay: flow cytometry, TC71 EWS cells (control)
[20] = molecular target: L1-CAM on L1-CAM(+) human tumor cells (human) (UniProt P32004); assay: flow cytometry, NCI-H69 SCLC cells (control)
[21] = molecular target: L1-CAM on L1-CAM(+) human tumor cells (human) (UniProt P32004); assay: flow cytometry, HTB-41 A253 submaxillary salivary gland cells (control)
[22] = molecular target: L1-CAM on L1-CAM(+) human tumor cells (human) (UniProt P32004); assay: flow cytometry, U2OS osteosarcoma cells (control)
[23] = molecular target: L1-CAM on L1-CAM(+) human tumor cells (human) (UniProt P32004); assay: flow cytometry, SKEPR EWS cells (control)
[24] = molecular target: L1-CAM on L1-CAM(+) human tumor cells (human) (UniProt P32004); assay: flow cytometry, SKEAW EWS cells (control)
[25] = molecular target: L1-CAM on L1-CAM(+) human tumor cells (human) (UniProt P32004); assay: flow cytometry, TC32 EWS cells (control)
[26] = molecular target: L1-CAM on L1-CAM(+) human tumor cells (human) (UniProt P32004); assay: flow cytometry, RH28 rhabdomyosarcoma cells (control)
[27] = molecular target: L1-CAM on L1-CAM(+) human tumor cells (human) (UniProt P32004); assay: flow cytometry, CHP-100 EWS cells (control)
[28] = molecular target: L1-CAM on L1-CAM(+) human tumor cells (human) (UniProt P32004); assay: flow cytometry, CRL1427 osteosarcoma cells (control)
[29] = molecular target: L1-CAM on L1-CAM(+) human tumor cells (human) (UniProt P32004); assay: flow cytometry, AU565 breast CA cells (control)
[30] = molecular target: L1-CAM on L1-CAM(+) human tumor cells (human) (UniProt P32004); assay: flow cytometry, SKMEL28 melanoma cells (control)
[31] = molecular target: L1-CAM on L1-CAM(+) human tumor cells (human) (UniProt P32004); assay: flow cytometry, HTB24 breast CA cells (control)
[32] = molecular target: L1-CAM on L1-CAM(+) human tumor cells (human) (UniProt P32004); assay: flow cytometry, RH36 rhabdomyosarcoma cells (control)
[33] = molecular target: L1-CAM on L1-CAM(+) human tumor cells (human) (UniProt P32004); assay: flow cytometry, RH41 rhabdomyosarcoma cells (control)
[34] = molecular target: L1-CAM on L1-CAM(+) human tumor cells (human) (UniProt P32004); assay: flow cytometry, RH48 rhabdomyosarcoma cells (control)
[35] = molecular target: L1-CAM on L1-CAM(+) human tumor cells (human) (UniProt P32004); assay: flow cytometry, SKNMM LUC NB cells (control)
[36] = molecular target: L1-CAM on L1-CAM(+) human tumor cells (human) (UniProt P32004); assay: flow cytometry, SKNCM NB cells (control)
[37] = molecular target: L1-CAM on L1-CAM(+) human tumor cells (human) (UniProt P32004); assay: flow cytometry, IMR32 LUC NB cells (control)
[38] = molecular target: L1-CAM on L1-CAM(+) human tumor cells (human) (UniProt P32004); assay: flow cytometry, HTB82 rhabdomyosarcoma cells (control)
[39] = molecular target: L1-CAM on L1-CAM(+) human tumor cells (human) (UniProt P32004); assay: flow cytometry, 8402 ALL cells (control)
[40] = molecular target: L1-CAM on L1-CAM(+) human tumor cells (human) (UniProt P32004); assay: flow cytometry, 5838 EWS cells (control)
[41] = molecular target: L1-CAM on L1-CAM(+) human tumor cells (human) (UniProt P32004); assay: flow cytometry, SKEFM EWS cells (control)
[42] = molecular target: L1-CAM on L1-CAM(+) human tumor cells (human) (UniProt P32004); assay: flow cytometry, SW480 CRC cells (control)
[43] = molecular target: L1-CAM on L1-CAM(+) human tumor cells (human) (UniProt P32004); assay: flow cytometry, RG143B osteosarcoma cells (control)
[44] = molecular target: L1-CAM on L1-CAM(+) human tumor cells (human) (UniProt P32004); assay: flow cytometry, NCI-H82 SCLC cells (control)
[45] = molecular target: L1-CAM on L1-CAM(+) human tumor cells (human) (UniProt P32004); assay: flow cytometry, NCI-H524 SCLC cells (control)
[46] = molecular target: L1-CAM on L1-CAM(+) human tumor cells (human) (UniProt P32004); assay: flow cytometry, A4573 EWS cells (control)
[47] = molecular target: L1-CAM on L1-CAM(+) human tumor cells (human) (UniProt P32004); assay: flow cytometry, SKELP EWS cells (control)
[48] = molecular target: L1-CAM on L1-CAM(+) human tumor cells (human) (UniProt P32004); assay: flow cytometry, SKES-1 EWS cells (control)
[49] = molecular target: L1-CAM on L1-CAM(+) human tumor cells (human) (UniProt P32004); assay: flow cytometry, LAN-1 NB cells (control)
[50] = molecular target: L1-CAM on L1-CAM(+) human tumor cells (human) (UniProt P32004); assay: flow cytometry, HTB25 breast CA cells (control)
[51] = molecular target: L1-CAM on L1-CAM(+) human tumor cells (human) (UniProt P32004); assay: flow cytometry, SKNMC EWS cells (control)
[52] = molecular target: L1-CAM on L1-CAM(+) human tumor cells (human) (UniProt P32004); assay: flow cytometry, UM SCC 22B HNSCC cells (control)
[53] = molecular target: L1-CAM on L1-CAM(+) human tumor cells (human) (UniProt P32004); assay: flow cytometry, SKERT EWS cells (control)
[54] = molecular target: L1-CAM on L1-CAM(+) human tumor cells (human) (UniProt P32004); assay: flow cytometry, NCI-H345 SCLC cells (control)

L1-CAM on L1-CAM(+) human tumor cells (human), sequence (P32004 20-1257 limits assumed): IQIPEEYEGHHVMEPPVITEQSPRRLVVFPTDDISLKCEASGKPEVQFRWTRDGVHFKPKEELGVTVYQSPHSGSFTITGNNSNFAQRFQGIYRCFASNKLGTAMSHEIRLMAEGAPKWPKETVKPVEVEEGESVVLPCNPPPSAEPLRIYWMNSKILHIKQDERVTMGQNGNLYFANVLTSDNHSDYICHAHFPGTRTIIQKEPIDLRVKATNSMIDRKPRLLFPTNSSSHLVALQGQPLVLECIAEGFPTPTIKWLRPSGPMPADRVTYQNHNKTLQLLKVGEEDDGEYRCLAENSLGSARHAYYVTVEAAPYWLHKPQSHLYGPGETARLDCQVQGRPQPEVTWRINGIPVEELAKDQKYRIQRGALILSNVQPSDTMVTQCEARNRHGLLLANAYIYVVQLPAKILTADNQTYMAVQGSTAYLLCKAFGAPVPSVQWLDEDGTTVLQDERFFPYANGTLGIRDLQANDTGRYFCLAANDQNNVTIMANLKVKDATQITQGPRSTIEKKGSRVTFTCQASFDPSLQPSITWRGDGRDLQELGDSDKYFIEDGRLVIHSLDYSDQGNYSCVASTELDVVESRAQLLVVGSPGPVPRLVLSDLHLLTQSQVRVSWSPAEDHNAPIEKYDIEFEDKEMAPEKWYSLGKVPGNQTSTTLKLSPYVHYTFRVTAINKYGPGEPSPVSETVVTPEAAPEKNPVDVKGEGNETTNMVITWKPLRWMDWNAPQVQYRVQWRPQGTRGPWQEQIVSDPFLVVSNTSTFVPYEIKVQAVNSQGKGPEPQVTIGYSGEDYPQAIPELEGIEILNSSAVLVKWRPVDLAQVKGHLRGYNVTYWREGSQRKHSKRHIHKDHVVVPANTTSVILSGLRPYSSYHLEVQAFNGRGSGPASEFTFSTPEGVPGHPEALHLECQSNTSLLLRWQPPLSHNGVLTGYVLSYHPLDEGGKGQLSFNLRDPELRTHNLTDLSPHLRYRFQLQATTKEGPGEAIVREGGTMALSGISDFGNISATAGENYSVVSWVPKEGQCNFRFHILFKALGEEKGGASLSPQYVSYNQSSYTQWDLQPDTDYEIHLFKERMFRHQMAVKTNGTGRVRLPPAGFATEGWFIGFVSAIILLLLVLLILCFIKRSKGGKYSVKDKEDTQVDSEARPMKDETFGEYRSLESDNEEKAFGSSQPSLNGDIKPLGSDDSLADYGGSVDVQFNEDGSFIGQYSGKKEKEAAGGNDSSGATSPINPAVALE

Work on MOPC 21 (antibody) yielded an MFI [1] of 5, an MFI [2] of 5 and an MFI [3] of 5. For the same substance, the MFI [4] was 5, the MFI [5] was 5 and the MFI [6] was 5. It also gave an MFI [7] of 5, an MFI [8] of 5 and an MFI [9] of 5. The MFI [10] was 5.
Rituxan (antibody) gave an MFI [11] of 5, an MFI [12] of 5 and an MFI [13] of 5. For the same substance, the MFI [14] was 5, the MFI [15] was 5 and the MFI [16] was 5. It also gave an MFI [17] of 5, an MFI [18] of 5 and an MFI [19] of 5. For the same substance, the MFI [20] was 4, the MFI [21] was 5 and the MFI [22] was 5. The MFI [23] was 3, the MFI [24] was 5 and the MFI [25] was 5. It also gave an MFI [26] of 5, an MFI [27] of 5 and an MFI [28] of 5. The MFI [29] was 5, the MFI [30] was 5 and the MFI [31] was 6. For the same substance, the MFI [32] was 5, the MFI [33] was 5 and the MFI [34] was 5. It also gave an MFI [35] of 4, an MFI [36] of 5 and an MFI [37] of 4. For the same substance, the MFI [38] was 5, the MFI [39] was 4 and the MFI [40] was 5. For the same substance, the MFI [41] was 5, the MFI [42] was 5 and the MFI [43] was 5. The MFI [44] was 5, the MFI [45] was 3 and the MFI [46] was 5. For the same substance, the MFI [47] was 5, the MFI [48] was 5 and the MFI [49] was 6. The MFI [50] was 5, the MFI [51] was 5 and the MFI [52] was 5. The MFI [53] was 5 and the MFI [54] was 3.
